Substrate in the series: C[C@@H](O)[C@H](N)C(=O)O
Nature of the series: HPLC nucleoside analysis of t6A formed on tRNA-Ile in reconstituted assay. The series is classed as biochemical, Saccharomyces cerevisiae. The note with it: coupled two-enzyme system: Sua5 plus yeast Qri7 (30-407), 2 uM Sua5/Qri7, 20 uM tRNA-Ile, 2 mM ATP, 1 mM NaHCO3, 5 mM MnCl2, 200 mM NaCl, 50 mM Tris-HCl pH 8.0, ambient temperature, 60 min.

B1: Sua5 (Saccharomyces cerevisiae S288C) (protein)
chain: MYLGRHFLAMTSKALFDTKILKVNPLSIIFSPDAHIDGSLPTITDPETEAALVEAARIIRDTDETVAFPTETVYGLGGSALNDNSVLSIYRAKNRPSDNPLITHVSSIDQLNRKVFNQPHLSGTSLFDNIPSIYRPLISSLWPGPLTILLPVPSSEHSALSKLTTADQPTFAVRIPANPVARALIALSDTPIAAPSANASTRPSPTLASHVYHDLKDKIPIILDGGACKVGVESTVVDGLCNPPTLLRPGGFTYEEIVKLGGEAWSLCKVENKKTVEKGEKVRTPGMKYRHYSPSAKVVLLVPHCEGDGILKGVDRMERLKRLIETELKANSNIKKIAILTSLKLRDSDLQSKIFNEPDFSSKTFIIERLGQSGEEIQTNLFAALRKVDENDKVDLIFVEGINEEGEGLAVMNRLRKAAANNCIQF
notes: full length; N-terminal hexa-histidine or GST tag; expressed in E. coli BL21 (DE3) CodonPlus
Turning to B1, the Km was 0.11 ± 0.014 µM.

As a reminder, the Km is the substrate concentration at which the rate is half of its maximum.

Values taken from article PMC3695523, “Reconstitution and characterization of eukaryotic N6-threonylcarbamoylation of tRNA using a minimal enzyme system” (Nucleic Acids Research, 2013).
